Like-named read-outs stand apart in the source and are kept apart here.
Legend:
[1] = Ex vivo biodistribution of 225Ac-labeled variants in AR42J tumor-bearing mice; conditions: athymic nu/nu, mouse, total radioactivity, 225Ac-labeled; for tissue uptake at 24 h / tissue uptake at 96 h: AR42J tumor-bearing mice; for tissue uptake at 96 h: 4 days post-injection
Protocol: Prior to conducting targeted alpha-particle therapy studies using three ^225Ac-labeled variants (Fig. S17) in AR42J xenograft-bearing mice, we first assessed their in vivo pharmacokinetics through ex vivo biodistribution studies at 24 h post-injection (Fig. 5A; Tables S4). […]
For studies involving three variants (DOTA -TATE, DOTA-MVK(ε)-TATE, and DOTA-β-Gal-TATE), AR42J cells (5 × 10^6 cells per mouse) were subcutaneously inoculated into the right shoulder of the mice. Tumors were allowed to grow for 3 weeks, reaching a volume of 100 –200 mm³ before being used in subsequent experiments. […]
All samples […]
were weighed and counted on a gamma counter (2480 Wizard 3, Perkin Elmer Inc., Waltham, MA, USA). Results are presented as percentage of injected activity per gram (%IA/g) and mean values ± standard deviations. […]
Prior to conducting alpha particle therapy, biodistribution studies with 225Ac-labeled DOTA - TATE variants (117 – 163 kBq, 1 μg) were performed at 24 hours and 4 days post -injection in athymic nu/nu mice bearing AR42J tumors (n = 4 – 5). Mice were euthanized by CO 2 asphyxiation, and 10 tissues, including tumors, were collected. All samples were weighed and counted on a gamma counter after equilibration for 12 hours. Results are presented as %IA/g and mean values ± standard deviations.

[2] = Histopathology (H&E) after two-cycle therapy; assay type: in vivo, athymic nu/nu mice; conditions: kidney H&E after two-cycle regimen, n = 6
Protocol: To further assess tissue-level toxicity at the conclusion of the two-cycle therapy study, kidneys, livers, spleens, and tumors from representative mice were collected and evaluated histologically using hematoxylin and eosin (H&E) staining. Microscopic pathology was assessed and recorded in the MHL Pathology Database (Zaphod) according to a standardized five-point grading scale (normal, minimal, mild, moderate, marked). Terminology and criteria for pathological findings were consistent with the INHAND (International Harmonization of Nomenclature and Diagnostic Criteria) guidelines developed by the Society of Toxicologic Pathology.
At the conclusion of the two-cycle therapy study, kidneys, livers, spleens, and tumors from representative mice were collected and processed for histological evaluation using hematoxylin and eosin (H&E) staining. Microscopic pathology was assessed and recorded in the MHL Pathology Database (Zaphod) using a standardized five-point ordinal grading system (normal, minimal, mild, moderate, marked). Terminology and diagnostic criteria were consistent with the International Harmonization of Nomenclature and Diagnostic Criteria (INHAND) guidelines established by the Society of Toxicologic Pathology (https://www.toxpath.org/inhand.asp)([57]).

AR42J xenografts = experiment: Dosimetry estimates of 225Ac-labeled variants from biodistribution data; assay type: in vivo, athymic nu/nu mice
Text: To evaluate the organ-level radiation absorbed dose resulting from different DOTA-TATE derivatives, we calculated the total effective dose per unit of injected activity (Eff Dose/IA, mSv/MBq) for ^225Ac-labeled variants based on biodistribution data in AR42J xenograft-bearing mice (Tables S5).
Estimated absorbed doses for individual organs for ^225Ac- and ^86Y-labeled DOTA-TATE variants were derived from residence times calculated using %IA/g data from biodistribution studies. The time–activity curves incorporated data from both radionuclides to provide complete coverage of early and late time points. Details of the dosimetry methodology, including time–activity curve construction, integration approach, decay assumptions, and conversion to effective dose, are provided in the Supplementary Information.
Dosimetry: The dosimetry was calculated by measuring the residence time per gram for each organ using the percent injected activity per gram (%IA/g) data collected for the biodistribution study. Because two biodistribution data sample groups were collected, one for the 86Y and the other for the 225Ac variant of the three DOTA-TATE variants (DOTA-TATE, DOTA-MVK(ε)- TATE, and DOTA-β-Gal-TATE) the %IA/g time activity curves (TAC) of the 86Y variant were merged with the 225Ac TACs. This was possible because of the difference in half lives between 86Y and 225Ac being 14.74 and 237.8 hours respectively setting the measurement time points to be 1, 4 and 24 hours for the 86Y ligands and 24, 96 hours for 225Ac. The full time activity curve is thus made up of the 1 and 4 hour time points of the 86Y %IA/g data points, an average of the common 24 hour time point of the 86Y and 225Ac %IA/g data points and the last 96 hour %IA/g time point of the 225Ac samples. The full 4 time points of 1, 4, 24, and 96 hours making up the […]
from which the residence times were calculated.
The integration of the TAC was performed using trapezoidal interpolation between time points.
The first time point assumed constant activity and a decay curve with the half life of the radioisotope was used to estimate activity beyond 96 hours. The average %IA/g was used for each tissue sample for each time point and the resulting standard deviation of the average was then used as the error estimate per time point to propagate through the residence time calculation.
Using the residence time for each TAC, the dose was calculated by looking up the dose per decay for each alpha, beta (positron and electron from nuclear beta decay) and electron emission listed in the nuclear data sheets provided by the Brookhaven National Laboratory National Nuclear Data Center. Since the 225Ac decays via a complicated decay chain, it is assumed that the dose from the daughters remains in the tissue assuming no biological dissemination once the 225Ac decays breaking the bonds of the DOTA-TATE ligand. The following mean dose per decay were used. For 225Ac, 27.58MeV/Bq-s for alpha emissions, 1.33MeV/Bq-s for beta plus electron emissions. For 86Y, 0.219 MeV/Bq-s for beta and electron emissions. Gamma emissions were ignored because of the small size of the tissue samples have small gamma absorption effects which would contribute negligibly to the dose calculation. Furthermore, dosimetry estimate […]
inter organ activity can be calculated(62).
To estimate the effective dose in mSv/MBq, a radiological factor of 5 was used to multiply the dose calculated from the alpha ionizations while a factor of 1 was used for the beta and electron ionizations to convert from mGy/MBq to mSv/MBq (63, 64).

[3] = 225Ac-labeled, AR42J xenografts, from biodistribution time-activity curves, alpha factor 5, mean, n = 4–5
[4] = 225Ac-labeled, dosimetry estimate
[5] = absorbed-dose estimate at 148 kBq per mouse

C[C@@H](O)[C@H](NC(=O)[C@@H]1CSSC[C@H](NC(=O)[C@@H](Cc2ccccc2)NC(=O)CCCC(=O)Nc2cc(COC(=O)N(C)CCNC(=O)CN3CCN(CC(=O)O)CCN(CC(=O)O)CCN(CC(=O)O)CC3)ccc2O[C@@H]2O[C@H](CO)[C@H](O)[C@H](O)[C@H]2O)C(=O)N[C@@H](Cc2ccc(O)cc2)C(=O)N[C@H](Cc2c[nH]c3ccccc23)C(=O)N[C@@H](CCCCN)C(=O)N[C@@H]([C@@H](C)O)C(=O)N1)C(=O)O [^225Ac-DOTA-β-Gal-TATE, metal not drawn]
tissue uptake at 24 h ([1]; iv, 1 ug, 24 h post-injection, ex vivo, mean (± SD), n = 4–5, read-out: Kidney uptake): 0.89 ± 0.08 %ID/g
tissue uptake at 24 h ([1]; iv, 1 ug, 24 h post-injection, ex vivo, mean (± SD), n = 4–5, read-out: Liver uptake): 0.89 ± 0.49 %ID/g
tissue uptake at 24 h ([1]; iv, 1 ug, 24 h post-injection, ex vivo, mean (± SD), n = 4–5, read-out: Tumor uptake): 8.22 ± 1.84 %ID/g
tissue uptake at 24 h ([1]; iv, 1 ug, 24 h post-injection, ex vivo, mean, n = 4–5, read-out: Femur uptake): 0.48 %ID/g
tissue uptake at 24 h ([1]; iv, 1 ug, 24 h post-injection, ex vivo, mean, n = 4–5, read-out: Intestine uptake): 0.17 %ID/g
tissue uptake at 24 h ([1]; iv, 1 ug, 24 h post-injection, ex vivo, mean, n = 4–5, read-out: Spleen uptake): 0.47 %ID/g
tissue uptake at 24 h ([1]; iv, 1 ug, 24 h post-injection, i.v. 1 μg (117–163 kBq), ex vivo gamma counting, mean, n = 4–5, read-out: Blood uptake): 0.04 %ID/g
tissue uptake at 96 h ([1]; iv, 1 ug, ex vivo, mean, n = 4–5, read-out: Blood uptake): 0.03 %ID/g
tissue uptake at 96 h ([1]; iv, 1 ug, ex vivo, mean, n = 4–5, read-out: Femur uptake): 0.42 %ID/g
tissue uptake at 96 h ([1]; iv, 1 ug, ex vivo, mean, n = 4–5, read-out: Intestine uptake): 0.09 %ID/g
tissue uptake at 96 h ([1]; iv, 1 ug, ex vivo, mean, n = 4–5, read-out: Kidney uptake): 0.28 %ID/g
tissue uptake at 96 h ([1]; iv, 1 ug, ex vivo, mean, n = 4–5, read-out: Liver uptake): 0.5 %ID/g
tissue uptake at 96 h ([1]; iv, 1 ug, ex vivo, mean, n = 4–5, read-out: Muscle uptake): 0.22 %ID/g
tissue uptake at 96 h ([1]; iv, 1 ug, ex vivo, mean, n = 4–5, read-out: Spleen uptake): 0.22 %ID/g
tissue uptake at 24 h ([1]; 24 h post-injection, ex vivo, mean, n = 4–5, read-out: Heart uptake): 0.1 %ID/g
tissue uptake at 24 h ([1]; 24 h post-injection, ex vivo, mean, n = 4–5, read-out: Lung uptake): 0.1 %ID/g
tissue uptake at 24 h ([1]; 24 h post-injection, ex vivo, mean, n = 4–5, read-out: Muscle uptake): 0.1 %ID/g
tissue uptake at 96 h ([1]; ex vivo, mean (± SD), n = 4–5, read-out: Tumor uptake): 2.74 %ID/g
tissue uptake at 96 h ([1]; ex vivo, mean, n = 4–5, read-out: Heart uptake): 0.13 %ID/g
tissue uptake at 96 h ([1]; ex vivo, mean, n = 4–5, read-out: Lung uptake): 0.11 %ID/g
tissue to tissue ratio at 24 h ([1]; AR42J xenografts, 24 h post-injection, ex vivo, mean ± SD, n = 4, read-out: Tumor-to-kidney (T/K) ratio): 9.12 ± 1.31
Tubular damage, percentage of mice with grade 0 ([2]; 0–4+ scale (normal, minimal, mild, moderate, marked)): 100%
Glomerulopathy, percentage of mice with grade 0 ([2]; 0–4+ scale): 67%
Total effective dose per injected activity, Femur (AR42J xenografts; [3]): 7.96E+04 mSv/MBq
Total effective dose per injected activity, Heart (AR42J xenografts; [3]): 1.20E+04 mSv/MBq
Total effective dose per injected activity, Intestine (AR42J xenografts; [3]): 2.87E+04 mSv/MBq
Total effective dose per injected activity, Kidney (AR42J xenografts; [3]): 1.56 × 10^5 mSv/MBq
Total effective dose per injected activity, Liver (AR42J xenografts; [3]): 1.34E+05 mSv/MBq
Total effective dose per injected activity, Lung (AR42J xenografts; [3]): 1.91E+04 mSv/MBq
Total effective dose per injected activity, Muscle (AR42J xenografts; [3]): 1.02E+04 mSv/MBq
Total effective dose per injected activity, Spleen (AR42J xenografts; [3]): 3.37E+04 mSv/MBq
Total effective dose per injected activity, Tumor (AR42J xenografts; [3]): 1.06 × 10^6 mSv/MBq
Total effective dose per injected activity, Blood (AR42J xenografts; 225Ac-labeled, AR42J xenografts, from merged 86Y/225Ac time-activity curves (1, 4, 24, 96 h), alpha factor 5, mean, n = 4–5): 3.93E+03 mSv/MBq
Tumor dose higher than that of 225Ac-DOTA-MVK(ε)-TATE (AR42J xenografts; [4]): 1.59 fold
Tumor dose higher than that of 225Ac-DOTA-TATE (AR42J xenografts; [4]): 2.46 fold
Absorbed dose to kidney (AR42J xenografts; [5]): 4.8 Gy
Absorbed dose to tumor (AR42J xenografts; [5]): 32.5 Gy
Reduction of kidney dose versus 225Ac-DOTA-MVK(ε)-TATE (AR42J xenografts; [5]): ~15%

From doi:10.1101/2025.09.11.675134, “Biodistribution-Driven Discovery Identifies a Glycosidase-Cleavable Linker to Reprogram Radiotheranostics” (bioRxiv, 2025)
